The target of data set [1] is T1, DDX1 lacking D2 domain (UniProt Q92499 1-450).
T1 sequence: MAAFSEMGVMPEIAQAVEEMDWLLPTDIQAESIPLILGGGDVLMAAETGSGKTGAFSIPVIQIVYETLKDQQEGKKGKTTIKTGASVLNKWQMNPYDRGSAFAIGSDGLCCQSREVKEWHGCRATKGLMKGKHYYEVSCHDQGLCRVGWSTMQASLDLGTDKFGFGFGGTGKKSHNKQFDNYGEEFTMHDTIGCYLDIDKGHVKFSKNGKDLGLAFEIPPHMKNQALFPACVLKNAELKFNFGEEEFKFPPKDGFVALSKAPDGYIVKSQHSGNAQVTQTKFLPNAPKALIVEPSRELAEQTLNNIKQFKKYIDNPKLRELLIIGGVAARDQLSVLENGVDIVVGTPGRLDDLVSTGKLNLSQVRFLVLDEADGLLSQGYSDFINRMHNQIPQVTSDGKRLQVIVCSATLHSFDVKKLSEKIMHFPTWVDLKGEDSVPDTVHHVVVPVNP
Nature of the data set: ITC; ITC: 20 mM Tris pH 7.5, 150 mM NaCl, 25 C; YTH labelling: 3 uM YTH, 12 uM BP/CP (200 mM NaCl chosen after optimization); pull-down: HeLa RIPA lysate, 4 C, UV 6. As to conditions: protein: recombinant; tags: pET28a, Ni-NTA purified (His).

In data set [2] the target is T2, DDX1 (UniProt Q92499 1-728).
T2 sequence: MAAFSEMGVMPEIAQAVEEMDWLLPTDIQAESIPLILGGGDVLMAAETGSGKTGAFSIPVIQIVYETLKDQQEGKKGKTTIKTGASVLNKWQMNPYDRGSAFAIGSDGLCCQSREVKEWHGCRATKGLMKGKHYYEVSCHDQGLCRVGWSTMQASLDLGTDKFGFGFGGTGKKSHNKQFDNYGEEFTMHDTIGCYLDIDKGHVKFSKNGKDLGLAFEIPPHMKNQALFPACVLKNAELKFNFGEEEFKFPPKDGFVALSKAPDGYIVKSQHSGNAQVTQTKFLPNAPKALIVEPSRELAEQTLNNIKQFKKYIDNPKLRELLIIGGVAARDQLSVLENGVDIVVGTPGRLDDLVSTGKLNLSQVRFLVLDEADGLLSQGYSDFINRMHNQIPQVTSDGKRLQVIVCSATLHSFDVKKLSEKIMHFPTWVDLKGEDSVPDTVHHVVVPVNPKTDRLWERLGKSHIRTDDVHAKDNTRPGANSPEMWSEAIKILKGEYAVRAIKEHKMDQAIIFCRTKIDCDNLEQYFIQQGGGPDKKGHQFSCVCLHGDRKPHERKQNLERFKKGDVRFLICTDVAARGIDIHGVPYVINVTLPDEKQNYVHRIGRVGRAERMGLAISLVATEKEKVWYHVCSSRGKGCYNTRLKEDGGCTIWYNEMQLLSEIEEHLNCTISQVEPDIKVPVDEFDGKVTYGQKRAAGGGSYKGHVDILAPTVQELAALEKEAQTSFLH
Described as above. Particulars: protein: recombinant; tags: pET28a, Ni-NTA purified (His).

For the molecule AAGAUC (ssRNA, 2'-O-methyl A) [Am-modified ssRNA (ITC)], the results for the binding result in data set [1] and in data set [2] were “no binding” and “binds”, respectively.

Source of the values: PMC8441146, “DNA-guided photoactivatable probe-based chemical proteomics reveals the reader protein of mRNA methylation”.
